According to article PMC2859121 (Cell host & microbe, 2010):
* marks the point of attachment. Cam = NC(=O)C*

Experiments:
[1] = target: the molecule itself; experiment: SDS-PAGE under reducing and non-reducing conditions
cross-linking = target: the molecule itself; experiment: cross-linking

| Protein | stoichiometry N [1] | stoichiometry N (cross-linking) | also measured |
| --- | --- | --- | --- |
| tetherin(47–159) (domain or fragment, human, UniProt Q10589 47-159, looked up) KANSEACRDGLRAVMECRNVTHLLQQELTEAQKGFQDVEAQAATCNHTVMALMASLDAEKAQGQKKVEELEGEITTLNHKLQDASAEVERLRRENQVLSVRIADKKYYPSSQD | 2 | – | – |
| tetherin(47–159)_set2 (domain or fragment, human, UniProt Q10589 47-159, looked up) KANSEACRDGLRAVMECRNVTHLLQQELTEAQKGFQDVEAQAATCNHTVMALMASLDAEKAQGQKKVEELEGEITTLNHKKQDYSAEEERERRENQVLSVRIADKKYYPSSQD | – | – | binding result [1]: binds |
| tetherin(47–159) set 3 mutant (domain or fragment, human, UniProt Q10589 47-159, looked up) AAGSAACSAGLSAVMECRNVTHLLQQELTEAQKGFQDVEAQAATCNHTVMALMASLDAEKAQGQKKVEELEGEITTLNHKLQDASAEVERLRRENQVLSVRIADKKYYPSSQD | 2 | – | – |
| tetherin(80–147) (domain or fragment, human, UniProt Q10589 80-147, looked up) GFQDVEAQAATCNHTVMALMASLDAEKAQGQKKVEELEGEITTLNHKLQDASAEVERLRRENQVLSVR | 2 | – | – |
| tetherin(47–159), reduced with DTT and cysteines blocked with iodoacetamide (domain or fragment, human, UniProt Q10589 47-159, looked up, cysteines blocked with iodoacetamide after reduction with DTT) KANSEACRDGLRAVMECRNVTHLLQQELTEAQKGFQDVEAQAATCNHTVMALMASLDAEKAQGQKKVEELEGEITTLNHKLQDASAEVERLRRENQVLSVRIADKKYYPSSQD | – | 2 | – |
| tetherin(80–147), reduced with DTT and cysteines blocked with iodoacetamide (domain or fragment, human, UniProt Q10589 80-147, looked up) GFQDVEAQAATC(Cam)NHTVMALMASLDAEKAQGQKKVEELEGEITTLNHKLQDASAEVERLRRENQVLSVR | – | 2 | – |
